Source: patent US20080044436A1, “Method for Screening and Compositions for Treating Cancers” (priority 2004, published 2008)

Tests used:
[1] = system: HeLa cells; test: Cell cycle analysis by flow cytometry after TReP-132 induction; type: cell-based, human; conditions: HTO-GFP/TReP-132 cells, from 48 hours after doxycycline removal
From the text: HeLa Tet-off cells expressing the tTA transactivator under the control of tetracycline or doxycycline (Dox) (Clontech Laboratories, Palo Alto, Calif.) were stably transfected with the pBI-EGFP-TReP-132 vector or the pBI-EGFP control vector. In order to select stably transfected cells, the pcDNA6 plasmid (Invitrogen, Ontario, CA) containing the blasticidin resistance gene was cotransfected at a ratio of 1:50. For these transfections, the cells were first seeded in 6-well plates at an initial density of 1×10^5 cells per well, incubated for 24 hours, then transfected with ExGen 500 (MBI Fermentas, Flamborough, Ontario, CA) at a ratio of 5 μl of ExGen 500 for a total of 1 μg of plasmid such as described hereinabove in the section “Colony formation assays”. 48 hours post-transfection, cells were selected for 2 weeks with blasticidin (Sigma-Aldrich CA Ltd.). Clearly visible colonies were then were picked and subcloned on 12-well plates to enable growth. […]
To evaluate the percentage of cells in the G0/G1, S, or G2/M phase, flow cytometry profiles were determined on propidium iodide stained DNA from said cells. […] The percentage of cells in the G1, S, and G2/M phase was quantified with Multicycle AV software (Phoenix Flow System, San Diego, Calif.) (28).

[2] = system: cyclin D1/CDK6; test: In vitro kinase assay of immunoprecipitated cyclin D1/CDK6 (pRb substrate); type: biochemical, human; conditions: TReP-132 induced for 48 hours in HTO-GFP/TReP-132 cells
From the text: (§1) FIG. 9A: Kinase activities of each immunoprecipitated cyclin or CDK were quantified using pRb as substrate to measure cyclin D1/CDK6 activity, or histone H1 to measure cyclin A/CDK2 activity. The levels of phosphorylation of histone H1 or pRb in induced HTO cells (HeLa Tet Off) are expressed in relation to the levels in non-induced HTO cells (corresponding to level 1.0).
(§2) Cells were washed twice with cold PBS (Phosphate Buffered Saline), then harvested either in cold RIPA buffer (1×PBS, 1% Nonidet P-40, 0.5% sodium deoxycholate, 0.1% SDS, phosphatase and protease inhibitors) for co-immunoprecipitation analysis, or in lysis buffer (50 mM Tris, pH 8.0, 0.1% IGEPAL (Sigma)) for kinase assays. […] The blots were then visualized with ECL reagent and quantified with SCANWISE and Perfect-IMAGE V-5.3 software (CLARA VISION, France).
(§3) The kinase activities on histone H1 or Rb protein in the immunoprecipitates were measured as follows: the immunoprecipitates were first washed once with 1 ml of assay buffer (50 mM Tris-HCl, pH 7.4, 10 mM MgCl2, 1 mM dithiothreitol (DTT)), then resuspended in 20 μl of assay buffer containing 1 mg/ml casein (Sigma) and 1 μg of histone H1 or Rb protein (769) (sc-4112) as substrate. […]
(§4) The reaction was stopped by addition of 15 μl of electrophoresis buffer (3×). […] Phosphorylated Rb and histones were quantified by densitometry.

[3] = system: cyclin A/CDK2; test: In vitro kinase assay of immunoprecipitated cyclin A/CDK2 (histone H1 substrate); type: biochemical, human; conditions: TReP-132 induced for 48 hours in HTO-GFP/TReP-132 cells
From the text: as §1, §2, §3, §4

[4] = system: pRb; test: Western blot of pRb phosphorylation in HTO cells; type: cell-based, human; conditions: HTO-GFP/TReP-132 cells after Dox removal, almost undetectable at 72 hours
Protocol: FIG. 9B: Protein extracts (20 μg) of HTO cells expressing GFP or GFP and TReP-132 under the control of doxycycline, incubated or not with dox for the indicated times, were analyzed by western blot using anti-pRb antibodies directed against all pRb forms (hyperphopshorylated, phosphorylated and hypophosphorylated) or only against pRb phosphorylated at Ser 780, a target residue of cyclin D1/CDK4.
Cells were washed twice with cold PBS (Phosphate Buffered Saline), then harvested either in cold RIPA buffer (1×PBS, 1% Nonidet P-40, 0.5% sodium deoxycholate, 0.1% SDS, phosphatase and protease inhibitors) for co-immunoprecipitation analysis, or in lysis buffer (50 mM Tris, pH 8.0, 0.1% IGEPAL (Sigma)) for kinase assays. The lysates were incubated for 30 min on ice and cell debris was eliminated by centrifugation. The extracts were then aliquoted and stored at −80° C. For western blot analysis, RIPA or lysate buffer was used. For immunoprecipitations, whole cell lysates (1 mg) in RIPA buffer were preincubated with 0.1 μg of mouse or rabbit IgG and 20 μl of protein A-Sepharose beads (Amersham Biosciences, Uppsala, Sweden) for 30 min at 4° C. […] The blots were then visualized with ECL reagent and quantified with SCANWISE and Perfect-IMAGE V-5.3 software (CLARA VISION, France).

[5] = system: p16^INK4 gene; test: RNase protection assay of CDKI transcription in HeLa cells, p16; type: cell-based, human; conditions: HeLa Tet-off cells, doxycycline removed

B1: TReP-132: Transcriptional Regulating Protein of 132 kDa, polypeptide comprising SEQ ID NO: 2; here expressed in cells from vectors (protein)
chain: MGDQQLYKTNHVAHGSENLFYQQPPLGVHSGLNHNYGNAVTGGGMDAPQASPISPHFPQDTRDGLGLPVGSKNLGQMDTSRQGGWGSHAGPGNHVQLRGNLANSNMMWGAPAQAEPTDGYQYTYSQASEIRTQKLTSGVLHKLDSFTQVFANQNLRIQVNNMAQVLHTQSAVMDGAPDSALRQLLSQKPMEPPAPAIPSRYQQVPQQPHPGFTGGLSKPALQVGQHPTQGHLYYDYQQPLAQVPVQGGQPLQAPQMLSQHMQQMQQHQYYPPQQQQQAGQQRISMQEIQTQPQQIRPSQPQPPPQQQQPQQLQLQQRQGSMQIPQYYQPQPMMQHLQEQQQQQMHLQPPSYHRDPHQYTPEQAHTVQLIPLGSMSQYYYQEPQQPYSHPLYQQSHLSQHQQREDSQLKTYSSDRQAQAMLSSHGDLGPPDTGMGDPASSDLTRVSSTLPHRPLLSPSGIHLNNMGPQHQQLSPSAMWPQMHLPDGRAQPGSPESSGQPKGAFGEQFDAKNKLTCSICLKEFKNLPALNGHMRSHGGMRASPNLKQEEGEKVLPPQPQPPLPPPPPPPPPPQLPPEAESLTPMVMPVSVPVKLLPPKPSSQGFTNSTVAAPSARDKPASSMSDDEMPVLEIPRKHQPSVPKAEEPLKTVQEKKKFRHRPEPLFIPPPPSYNPNPAASYSGATLYQSQLRSPRVLGDHLLLDPTHELPPYTPPPMLSPVRQGSGLFSNVLISGHGPGAHPQLPLTPLTPTPRVLLCRSNSIDGSNVTVTPGPGEQTVDVEPRINIGLRFQAEIPELQDISALAQDTHKATLVWKPWPELENHDLQQRVENLLNLCCSSALPGGGTNSEFALHSLFEAKGDVMVALEMLLLRKPVRLKCHPLANYHYAGSDKWTSLERKLFNKALATYSKDFIFVQKMVKSKTVAQCVEYYYTWKKIMRLGRKHRTRLAEIIDDCVTSEEEEELEEEEEEDPEEDRKSTKEEESEVPKSPEPPPVPVLAPTEGPPLQALGQPSGSFICEMPNCGAVFSSRQALNGHARIHGGTNQVTKARGAIPSGKQKPGGTQSGYCSVKSSPSHSTTSGETDPTTIFPCKECGKVFFKIKSRNAHMKTHRQQEEQQRQKAQKAAFAAEMAATIERTTGPVGAPGLLPLDQLSLIKPIKDVDILDDDVVQQLGGVMEEAEVVDTDLLLDDQDSVLLQGDAEL
Question: B1 was tested. Which cell cycle effect [1] did it give?
Answer: arrested cells in the G1 phase

Question: And the “in vitro kinase activity of cyclin D1/CDK6” value [2]?
Answer: reduced

Question: What about the “in vitro kinase activity of cyclin A/CDK2” value [3] of the same molecule?
Answer: reduced

Question: And the “phosphorylated pRb (ppRb) level” value [4]?
Answer: marked reduction

Question: What about the p16 gene transcription [5] of the same molecule?
Answer: induction
